From PMC9691700, “CD147 contributes to SARS-CoV-2-induced pulmonary fibrosis” (Signal Transduction and Targeted Therapy, 2022)

Target: T1, His-Spike RBD (40592-V08H) (SARS-CoV-2, UniProt P0DTC2 319-541)
T1 construct: source: bought: Sino Biological
Assay: SPR; Biacore T200, CM5 sensor chip; RBD fixed to the chip by amino coupling; CD147 flowed over; binding time 90 s, dissociation time 120 s
Settings: both partners purified

B1: Human His-CD147 (receptor)
chain: GTVFTTVEDLGSKILLTCSLNDSATEVTGHRWLKGGVVLKEDALPGQKTEFKVDSDDQWGEYSCVFLPEPMGTANIQLHGPPRVKAVKSSEHINEGETAMLVCKSESVPPVTDWAWYKITDSEDKALMNGSESRFFVSSSQGRSELHIENLNMEADPGQYRCNGTSSKGSDQAIITLRVRSHLAAL
notes: CD147 (basigin), human; also called human CD147; hCD147
Kd: 4.47 µM
